Data taken from US20030073236A1, “p193 proteins and nucleic acids, and uses thereof” (priority 1999, published 2003).

Target: p193myc (p193 protein harboring a C-terminal myc epitope tag, from CMV-p193myc) (mouse) (UniProt Q8VE73)
Assay: cell-based or functional assay

For “SV40 Large T Antigen (T-Ag) (from UniProt P03070 1-708)”, the co-localization to the cytoplasm in co-transfected NIH-3T3 cells (immune cytologic analyses) was 63%.
